# Measured values reported in US10918717 (GREEN CROSS, dated 2021).
# B1: anti-EGFR antibody GC1118A (antibody, V domains shown)
# VH: EVQLVESGGGVVQPGGSLRLSCAASGFTFSDYDMSWIRQAPGKGLEWVSGILGGSERSYYRDSVKGRFTISRDNSRKTLYLQMNSLRAEDTAVYYCARHGSPGYTLYAWDYWGQGTTVTVSS
# VL: DIVMTQTPLSLPVTPGEPASISCRSNQDLTHSNGNTYLEWYLQKPGQSPRLLIYKVSNRFSGVPDRFSGSGAGTDFTLRISRVEAEDVGVYYCMQGTHWPWTFGQGTKVDIKR
# notes: These may hold only the part of the antibody that was crystallised
# Biological target: epidermal growth factor receptor (EGFR) (Homo sapiens (Human), UniProt P00533 25-645, limits assumed)
# Test: potency 1 binding assay (ELISA); RSM sample #15 (10 mg/ml antibody, 55 mM Na-acetate, pH 6.0, 150 mM NaCl) after storage at 60 C for 1 day, relative to control
# Description: (11) Potency 1 (Binding assay): ELISA reader (Spectra Max 190, Molecular Devices) was used for potency 1 analysis.
# The prepared samples were subjected to thermal tests, under the storage condition of: (i) 37° C. for two weeks; or (ii) 60° C. for one day.
binder,measurement,value
B1,EC50% as compared to a control group,114 to 121%
